Experimental data published in patent US20230407373A1 (priority 2020, published 2023).
Where two headings read alike, the source gives them in different places.

System: HCoV-OC43 gRNA and sgRNA
Type: binding
Conditions: for target (unweighted spectral count): OC43 Probe II, infected cells; for target (unweighted spectral count) / target (unweighted spectral count, OC43 Probe II capture): tested against no-probe control; for target (unweighted spectral count, OC43 Probe II capture): FDR<10%; for target (unweighted spectral count, OC43 Probe II) / background (unweighted spectral count, no-probe control): type n_48_v, 48 hpi; for target (unweighted spectral count, OC43 Probe II): OC43 Probe II capture on infected cells; for background (unweighted spectral count, no-probe control): no-probe control on infected cells

B1: SLC2A1 (protein, UniProt P11166 1-492, looked up)
Solute carrier family 2, …: MEPSSKKLTGRLMLAVGGAVLGSLQFGYNTGVINAPQKVIEEFYNQTWVHRYGESILPTTLTTLWSLSVAIFSVGGMIGSFSVGLFVNRFGRRNSMLMMNLLAFVSAVLMGFSKLGKSFEMLILGRFIIGVYCGLTTGFVPMYVGEVSPTALRGALGTLHQLGIVVGILIAQVFGLDSIMGNKDLWPLLLSIIFIPALLQCIVLPFCPESPRFLLINRNEENRAKSVLKKLRGTADVTHDLQEMKEESRQMMREKKVTILELFRSPAYRQPILIAVVLQLSQQLSGINAVFYYSTSIFEKAGVQQPVYATIGSGIVNTAFTVVSLFVVERAGRRTLHLIGLAGMAGCAILMTIALALLEQLPWMSYLSIVAIFGFVAFFEVGPGPIPWFIVAELFSQGPRPAAIAVAGFSNWTSNFIVGMCFQYVEQLCGPYVFIIFTVLLVLFFIFTYFKVPETKGRTFDEIASGFRQGGASQSDKTPEELFHPLGADSQV
For B1, the “target (unweighted spectral count)” value (12 hpi (type n_12_v)) was 6.

B2: KPRP (protein, UniProt Q5T749 1-579, looked up)
Keratinocyte proline-rich …: MCDQQQIQCRLPLQQCCVKGPSFCSSQSPFAQSQVVVQAPCEMQIVDCPASCPVQVCQVSDQAPCQSQTTQVKCQSKTKQVKGQAQCQSKTTQVKGQAASQSQTSSVQSQAPCQSEVSYVQCEASQPVQTCFVECAPVCYTETCYVECPVQNYVPCPAPQPVQMYRGRPAVCQPQGRFSTQCQYQGSYSSCGPQFQSRATCNNYTPQFQLRPSYSSCFPQYRSRTSFSPCVPQCQTQGSYGSFTEQHRSRSTSRCLPPPRRLQLFPRSCSPPRRFEPCSSSYLPLRPSEGFPNYCTPPRRSEPIYNSRCPRRPISSCSQRRGPKCRIEISSPCCPRQVPPQRCPVEIPPIRRRSQSCGPQPSWGASCPELRPHVEPRPLPSFCPPRRLDQCPESPLQRCPPPAPRPRLRPEPCISLEPRPRPLPRQLSEPCLYPEPLPALRPTPRPVPLPRPGQCEIPEPRPCLQPCEHPEPCPRPEPIPLPAPCPSPEPCRETWRSPSPCWGPNPVPYPGDLGCHESSPHRLDTEAPYCGPSSYNQGQESGAGCGPGDVFPERRGQDGHGDQGNAFAGVKGEAKSAYF
In the case of B2, the “target (unweighted spectral count)” value (24 hpi (type n_24_v)) is reported as 15.

B3: HNRNPF (protein, UniProt P52597 1-415, looked up)
Heterogeneous nuclear …: MMLGPEGGEGFVVKLRGLPWSCSVEDVQNFLSDCTIHDGAAGVHFIYTREGRQSGEAFVELGSEDDVKMALKKDRESMGHRYIEVFKSHRTEMDWVLKHSGPNSADSANDGFVRLRGLPFGCTKEEIVQFFSGLEIVPNGITLPVDPEGKITGEAFVQFASQELAEKALGKHKERIGHRYIEVFKSSQEEVRSYSDPPLKFMSVQRPGPYDRPGTARRYIGIVKQAGLERMRPGAYSTGYGGYEEYSGLSDGYGFTTDLFGRDLSYCLSGMYDHRYGDSEFTVQSTTGHCVHMRGLPYKATENDIYNFFSPLNPVRVHIEIGPDGRVTGEADVEFATHEEAVAAMSKDRANMQHRYIELFLNSTTGASNGAYSSQVMQGMGVSAAQATYSGLESQSVSGCYGAGYSGQNSMGGYD
In the case of B3, the “target (unweighted spectral count, OC43 Probe II capture)” value (36 hpi, type n_36_v) is reported as 34, the “target (unweighted spectral count)” value (12 hpi (type n_12_v)) is reported as 13 and the “target (unweighted spectral count)” value (24 hpi (type n_24_v)) is reported as 27. For the same molecule, the “target (unweighted spectral count, OC43 Probe II)” value was 34 and the “background (unweighted spectral count, no-probe control)” value was 4.

B4: HNRNPA2B1 (protein, UniProt P22626 1-353, looked up)
Heterogeneous nuclear …: MEKTLETVPLERKKREKEQFRKLFIGGLSFETTEESLRNYYEQWGKLTDCVVMRDPASKRSRGFGFVTFSSMAEVDAAMAARPHSIDGRVVEPKRAVAREESGKPGAHVTVKKLFVGGIKEDTEEHHLRDYFEEYGKIDTIEIITDRQSGKKRGFGFVTFDDHDPVDKIVLQKYHTINGHNAEVRKALSRQEMQEVQSSRSGRGGNFGFGDSRGGGGNFGPGPGSNFRGGSDGYGSGRGFGDGYNGYGGGPGGGNFGGSPGYGGGRGGYGGGGPGYGNQGGGYGGGYDNYGGGNYGSGNYNDFGNYNQQPSNYGPMKSGNFGGSRNMGGPYGGGNYGPGGSGGSGGYGGRSRY
In the case of B4, the “target (unweighted spectral count)” value (12 hpi (type n_12_v)) is reported as 28, the “target (unweighted spectral count, OC43 Probe II)” value is reported as 86 and the “background (unweighted spectral count, no-probe control)” value is reported as 7.

B5: TRMT10C (protein, UniProt Q7L0Y3 40-403, looked up)
tRNA methyltransferase 10 …: MSSKIPAVTYPKNESTPPSEELELDKWKTTMKSSVQEECVSTISSSKDEDPLAATREFIEMWRLLGREVPEHITEEELKTLMECVSNTAKKKYLKYLYTKEKVKKARQIKKEMKAAAREEAKNIKLLETTEEDKQKNFLFLRLWDRNMDIAMGWKGAQAMQFGQPLVFDMAYENYMKRKELQNTVSQLLESEGWNRRNVDPFHIYFCNLKIDGALHRELVKRYQEKWDKLLLTSTEKSHVDLFPKDSIIYLTADSPNVMTTFRHDKVYVIGSFVDKSMQPGTSLAKAKRLNLATECLPLDKYLQWEIGNKNLTLDQMIRILLCLKNNGNWQEALQFVPKRKHTGFLEISQHSQEFINRLKKAKT
For B5, the “target (unweighted spectral count)” value (12 hpi (type n_12_v)) was 6.

B6: SLC25A5 (protein, UniProt P05141 1-298, looked up)
ADP/ATP translocase 2: MTDAAVSFAKDFLAGGVAAAISKTAVAPIERVKLLLQVQHASKQITADKQYKGIIDCVVRIPKEQGVLSFWRGNLANVIRYFPTQALNFAFKDKYKQIFLGGVDKRTQFWLYFAGNLASGGAAGATSLCFVYPLDFARTRLAADVGKAGAEREFRGLGDCLVKIYKSDGIKGLYQGFNVSVQGIIIYRAAYFGIYDTAKGMLPDPKNTHIVISWMIAQTVTAVAGLTSYPFDTVRRRMMMQSGRKGTDIMYTGTLDCWRKIARDEGGKAFFKGAWSNVLRGMGGAFVLVLYDEIKKYT
B6 was tested, and the “target (unweighted spectral count)” value (12 hpi (type n_12_v)) was 6.

B7: RBM39 (protein, UniProt Q14498 2-530, looked up)
RNA-binding protein 39: ADDIDIEAMLEAPYKKDENKLSSANGHEERSKKRKKSKSRSRSHERKRSKSKERKRSRDRERKKSKSRERKRSRSKERRRSRSRSRDRRFRGRYRSPYSGPKFNSAIRGKIGLPHSIKLSRRRSRSKSPFRKDKSPVREPIDNLTPEERDARTVFCMQLAARIRPRDLEEFFSTVGKVRDVRMISDRNSRRSKGIAYVEFVDVSSVPLAIGLTGQRVLGVPIIVQASQAEKNRAAAMANNLQKGSAGPMRLYVGSLHFNITEDMLRGIFEPFGRIESIQLMMDSETGRSKGYGFITFSDSECAKKALEQLNGFELAGRPMKVGHVTERTDASSASSFLDSDELERTGIDLGTTGRLQLMARLAEGTGLQIPPAAQQALQMSGSLAFGAVAEFSFVIDLQTRLSQQTEASALAAAASVQPLATQCFQLSNMFNPQTEEEVGWDTEIKDDVIEECNKHGGVIHIYVDKNSAQGNVYVKCPSIAAAIAAVNALHGRWFAGKMITAAYVPLPTYHNLFPDSMTATQLLVPSRR
B7 was tested, and the “target (unweighted spectral count)” value (12 hpi (type n_12_v)) was 6 and the “target (unweighted spectral count)” value (24 hpi (type n_24_v)) was 10.

B8: MTPAP (protein, UniProt Q9NVV4 38-582, looked up)
Poly(A) RNA polymerase, …: KDLRRDEQPSGSVETGFEDKIPKRRFSEMQNERREQAQRTVLIHCPEKISENKFLKYLSQFGPINNHFFYESFGLYAVVEFCQKESIGSLQNGTHTPSTAMETAIPFRSRFFNLKLKNQTSERSRVRSSNQLPRSNKQLFELLCYAESIDDQLNTLLKEFQLTEENTKLRYLTCSLIEDMAAAYFPDCIVRPFGSSVNTFGKLGCDLDMFLDLDETRNLSAHKISGNFLMEFQVKNVPSERIATQKILSVLGECLDHFGPGCVGVQKILNARCPLVRFSHQASGFQCDLTTNNRIALTSSELLYIYGALDSRVRALVFSVRCWARAHSLTSSIPGAWITNFSLTMMVIFFLQRRSPPILPTLDSLKTLADAEDKCVIEGNNCTFVRDLSRIKPSQNTETLELLLKEFFEYFGNFAFDKNSINIRQGREQNKPDSSPLYIQNPFETSLNISKNVSQSQLQKFVDLARESAWILQQEDTDRPSISSNRPWGLVSLLLPSAPNRKSFTKKKSNKFAIETVKNLLESLKGNRTENFTKTSGKRTISTQT
For B8, the “target (unweighted spectral count, OC43 Probe II capture)” value (24 hpi, type n_24_v) was 4 and the “target (unweighted spectral count)” value (12 hpi (type n_12_v)) was 4.

B9: JUP (protein, UniProt P14923 1-745, looked up)
Junction plakoglobin: MEVMNLMEQPIKVTEWQQTYTYDSGIHSGANTCVPSVSSKGIMEEDEACGRQYTLKKTTTYTQGVPPSQGDLEYQMSTTARAKRVREAMCPGVSGEDSSLLLATQVEGQATNLQRLAEPSQLLKSAIVHLINYQDDAELATRALPELTKLLNDEDPVVVTKAAMIVNQLSKKEASRRALMGSPQLVAAVVRTMQNTSDLDTARCTTSILHNLSHHREGLLAIFKSGGIPALVRMLSSPVESVLFYAITTLHNLLLYQEGAKMAVRLADGLQKMVPLLNKNNPKFLAITTDCLQLLAYGNQESKLIILANGGPQALVQIMRNYSYEKLLWTTSRVLKVLSVCPSNKPAIVEAGGMQALGKHLTSNSPRLVQNCLWTLRNLSDVATKQEGLESVLKILVNQLSVDDVNVLTCATGTLSNLTCNNSKNKTLVTQNSGVEALIHAILRAGDKDDITEPAVCALRHLTSRHPEAEMAQNSVRLNYGIPAIVKLLNQPNQWPLVKATIGLIRNLALCPANHAPLQEAAVIPRLVQLLVKAHQDAQRHVAAGTQQPYTDGVRMEEIVEGCTGALHILARDPMNRMEIFRLNTIPLFVQLLYSSVENIQRVAAGVLCELAQDKEAADAIDAEGASAPLMELLHSRNEGTATYAAAVLFRISEDKNPDYRKRVSVELTNSLFKHDPAAWEAAQSMIPINEPYGDDMDATYRPMYSSDVPLDPLEMHMDMDGDYPIDTYSDGLRPPYPTADHMLA
B9 was tested, and the “target (unweighted spectral count)” value (24 hpi (type n_24_v)) was 11.

B10: DSG1 (protein, UniProt Q02413 50-1049, looked up)
Desmoglein-1: EWIKFAAACREGEDNSKRNPIAKIHSDCAANQQVTYRISGVGIDQPPYGIFVINQKTGEINITSIVDREVTPFFIIYCRALNSMGQDLERPLELRVRVLDINDNPPVFSMATFAGQIEENSNANTLVMILNATDADEPNNLNSKIAFKIIRQEPSDSPMFIINRNTGEIRTMNNFLDREQYGQYALAVRGSDRDGGADGMSAECECNIKILDVNDNIPYMEQSSYTIEIQENTLNSNLLEIRVIDLDEEFSANWMAVIFFISGNEGNWFEIEMNERTNVGILKVVKPLDYEAMQSLQLSIGVRNKAEFHHSIMSQYKLKASAISVTVLNVIEGPVFRPGSKTYVVTGNMGSNDKVGDFVATDLDTGRPSTTVRYVMGNNPADLLAVDSRTGKLTLKNKVTKEQYNMLGGKYQGTILSIDDNLQRTCTGTININIQSFGNDDRTNTEPNTKITTNTGRQESTSSTNYDTSTTSTDSSQVYSSEPGNGAKDLLSDNVHFGPAGIGLLIMGFLVLGLVPFLMICCDCGGAPRSAAGFEPVPECSDGAIHSWAVEGPQPEPRDITTVIPQIPPDNANIIECIDNSGVYTNEYGGREMQDLGGGERMTGFELTEGVKTSGMPEICQEYSGTLRRNSMRECREGGLNMNFMESYFCQKAYAYADEDEGRPSNDCLLIYDIEGVGSPAGSVGCCSFIGEDLDDSFLDTLGPKFKKLADISLGKESYPDLDPSWPPQSTEPVCLPQETEPVVSGHPPISPHFGTTTVISESTYPSGPGVLHPKPILDPLGYGNVTVTESYTTSDTLKPSVHVHDNRPASNVVVTERVVGPISGADLHGMLEMPDLRDGSNVIVTERVIAPSSSLPTSLTIHHPRESSNVVVTERVIQPTSGMIGSLSMHPELANAHNVIVTERVVSGAGVTGISGTTGISGGIGSSGLVGTSMGAGSGALSGAGISGGGIGLSSLGGTASIGHMRSSSDHHFNQTIGSASPSTARSRITKYSTVQYSK
B10 was tested, and the “target (unweighted spectral count)” value (24 hpi (type n_24_v)) was 8.
